The text below walks through data of article PMC3059534.

Data set [1] concerns the target Exo1 D173A;Mre11-Rad50-Xrs2 (MRX) (Saccharomyces cerevisiae (budding …, UniProt P39875;P32829;P12753;P33301 1-702;1-692;1-1312;1-854, D173A|)). Briefly: pull-down.
For data set [2], the target named is T1, Exo1 (form in crosslinking assay not stated) (Saccharomyces cerevisiae (budding yeast), UniProt P39875 1-702).
T1 sequence: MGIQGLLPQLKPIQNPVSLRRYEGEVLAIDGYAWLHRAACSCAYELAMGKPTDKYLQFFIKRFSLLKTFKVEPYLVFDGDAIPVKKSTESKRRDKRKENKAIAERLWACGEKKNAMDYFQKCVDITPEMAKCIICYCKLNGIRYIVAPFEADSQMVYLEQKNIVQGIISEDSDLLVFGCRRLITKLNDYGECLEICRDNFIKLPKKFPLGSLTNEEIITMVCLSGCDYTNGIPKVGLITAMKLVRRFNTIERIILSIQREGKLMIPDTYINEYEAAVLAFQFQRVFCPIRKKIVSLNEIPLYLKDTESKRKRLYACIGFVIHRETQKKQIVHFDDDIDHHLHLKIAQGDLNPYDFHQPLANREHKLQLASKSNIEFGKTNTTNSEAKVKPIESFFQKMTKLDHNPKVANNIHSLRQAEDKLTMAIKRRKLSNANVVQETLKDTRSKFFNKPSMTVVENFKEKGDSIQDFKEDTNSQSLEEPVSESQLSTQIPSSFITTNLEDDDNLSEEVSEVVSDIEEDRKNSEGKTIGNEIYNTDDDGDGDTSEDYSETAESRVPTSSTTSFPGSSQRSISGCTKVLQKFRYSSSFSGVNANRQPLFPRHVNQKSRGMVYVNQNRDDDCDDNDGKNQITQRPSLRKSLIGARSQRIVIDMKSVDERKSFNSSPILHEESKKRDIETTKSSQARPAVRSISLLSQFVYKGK
Briefly: UV photo-crosslinking.

In data set [3] the target is Exo1 (form in crosslinking assay not stated);Mre11-Rad50-Xrs2 (MRX);Sae2 (Saccharomyces cerevisiae (budding …, UniProt P39875;P32829;P12753;P33301;P46946 1-702;1-692;1-1312;1-854;1-345, ||)). Put plainly: UV photo-crosslinking.
Chain of Exo1 (form in crosslinking assay not stated);Mre11-Rad50-Xrs2 (MRX);Sae2 (Saccharomyces cerevisiae (P32829 whole entry, chain 2 of 3): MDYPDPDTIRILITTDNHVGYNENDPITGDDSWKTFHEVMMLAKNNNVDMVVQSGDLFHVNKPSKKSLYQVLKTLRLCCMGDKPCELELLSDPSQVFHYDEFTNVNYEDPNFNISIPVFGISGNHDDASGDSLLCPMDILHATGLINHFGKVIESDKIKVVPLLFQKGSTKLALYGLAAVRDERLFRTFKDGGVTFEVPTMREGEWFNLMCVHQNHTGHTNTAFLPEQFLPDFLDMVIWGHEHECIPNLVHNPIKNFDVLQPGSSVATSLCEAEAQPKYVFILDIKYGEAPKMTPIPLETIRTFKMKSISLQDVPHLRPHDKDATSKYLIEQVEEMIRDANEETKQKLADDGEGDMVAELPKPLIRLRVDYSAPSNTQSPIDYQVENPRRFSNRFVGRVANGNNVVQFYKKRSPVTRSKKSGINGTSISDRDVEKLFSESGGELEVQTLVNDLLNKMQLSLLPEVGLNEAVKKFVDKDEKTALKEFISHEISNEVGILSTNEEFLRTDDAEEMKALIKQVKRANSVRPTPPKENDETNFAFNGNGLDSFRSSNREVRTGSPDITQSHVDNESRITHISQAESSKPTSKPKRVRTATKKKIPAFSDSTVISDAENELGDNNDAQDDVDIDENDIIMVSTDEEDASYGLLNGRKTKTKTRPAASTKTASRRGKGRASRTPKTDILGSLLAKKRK
Chain of Exo1 (form in crosslinking assay not stated);Mre11-Rad50-Xrs2 (MRX);Sae2 (Saccharomyces cerevisiae (P12753 whole entry, chain 3 of 3): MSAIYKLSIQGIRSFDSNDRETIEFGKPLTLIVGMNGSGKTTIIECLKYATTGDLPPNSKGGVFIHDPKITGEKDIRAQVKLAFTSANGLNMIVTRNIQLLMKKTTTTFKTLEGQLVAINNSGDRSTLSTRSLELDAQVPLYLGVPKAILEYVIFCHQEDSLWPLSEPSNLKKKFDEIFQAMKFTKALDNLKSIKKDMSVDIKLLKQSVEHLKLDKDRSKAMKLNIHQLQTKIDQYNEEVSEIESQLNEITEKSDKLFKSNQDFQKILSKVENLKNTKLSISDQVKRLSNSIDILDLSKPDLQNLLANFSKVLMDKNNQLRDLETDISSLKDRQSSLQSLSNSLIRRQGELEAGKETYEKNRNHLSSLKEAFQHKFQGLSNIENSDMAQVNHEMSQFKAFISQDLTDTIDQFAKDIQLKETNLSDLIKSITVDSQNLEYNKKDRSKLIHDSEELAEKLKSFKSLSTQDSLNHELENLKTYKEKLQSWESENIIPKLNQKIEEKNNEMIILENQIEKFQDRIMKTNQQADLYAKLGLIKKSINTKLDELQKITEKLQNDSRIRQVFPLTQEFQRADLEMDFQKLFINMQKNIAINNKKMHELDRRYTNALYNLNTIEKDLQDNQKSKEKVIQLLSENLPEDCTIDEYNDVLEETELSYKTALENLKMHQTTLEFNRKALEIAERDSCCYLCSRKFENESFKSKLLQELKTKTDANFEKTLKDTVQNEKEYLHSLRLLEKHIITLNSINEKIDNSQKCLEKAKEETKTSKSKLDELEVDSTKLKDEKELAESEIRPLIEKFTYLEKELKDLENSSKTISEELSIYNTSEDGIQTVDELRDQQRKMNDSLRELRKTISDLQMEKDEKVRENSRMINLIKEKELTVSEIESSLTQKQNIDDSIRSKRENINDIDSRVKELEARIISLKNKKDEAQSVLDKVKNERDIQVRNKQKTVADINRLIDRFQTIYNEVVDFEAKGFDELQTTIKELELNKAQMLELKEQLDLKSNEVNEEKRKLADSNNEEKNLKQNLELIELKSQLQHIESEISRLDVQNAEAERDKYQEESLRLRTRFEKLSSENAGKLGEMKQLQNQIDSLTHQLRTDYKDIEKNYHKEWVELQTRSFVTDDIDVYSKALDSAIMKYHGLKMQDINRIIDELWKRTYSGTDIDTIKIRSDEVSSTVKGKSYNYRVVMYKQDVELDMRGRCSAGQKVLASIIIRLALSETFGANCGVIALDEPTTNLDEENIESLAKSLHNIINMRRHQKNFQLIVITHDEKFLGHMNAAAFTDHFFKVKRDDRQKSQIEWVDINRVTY
Chain of Exo1 (form in crosslinking assay not stated);Mre11-Rad50-Xrs2 (MRX);Sae2 (Saccharomyces cerevisiae (P33301 whole entry, chain 4 of 3): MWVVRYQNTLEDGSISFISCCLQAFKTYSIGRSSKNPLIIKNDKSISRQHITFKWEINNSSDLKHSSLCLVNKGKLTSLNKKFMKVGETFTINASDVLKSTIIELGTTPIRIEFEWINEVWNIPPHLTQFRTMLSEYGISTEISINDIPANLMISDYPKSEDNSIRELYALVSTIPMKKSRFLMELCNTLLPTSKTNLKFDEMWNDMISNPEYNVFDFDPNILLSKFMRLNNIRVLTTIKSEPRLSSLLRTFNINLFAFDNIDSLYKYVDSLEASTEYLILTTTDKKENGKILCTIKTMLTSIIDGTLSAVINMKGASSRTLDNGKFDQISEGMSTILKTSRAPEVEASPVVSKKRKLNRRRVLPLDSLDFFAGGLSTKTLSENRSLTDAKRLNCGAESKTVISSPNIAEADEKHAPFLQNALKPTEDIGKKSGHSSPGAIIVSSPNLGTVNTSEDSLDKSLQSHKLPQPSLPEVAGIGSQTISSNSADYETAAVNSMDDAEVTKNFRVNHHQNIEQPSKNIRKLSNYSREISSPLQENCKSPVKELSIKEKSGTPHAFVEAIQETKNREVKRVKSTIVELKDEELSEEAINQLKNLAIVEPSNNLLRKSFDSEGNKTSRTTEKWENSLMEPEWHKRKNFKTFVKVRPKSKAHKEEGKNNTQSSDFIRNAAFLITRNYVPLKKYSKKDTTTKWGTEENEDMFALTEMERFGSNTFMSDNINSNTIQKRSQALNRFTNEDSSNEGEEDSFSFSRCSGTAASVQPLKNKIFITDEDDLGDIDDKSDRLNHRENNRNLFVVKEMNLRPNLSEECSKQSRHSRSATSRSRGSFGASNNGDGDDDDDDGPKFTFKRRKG
The target of data set [4] is T2, Sae2 (Saccharomyces cerevisiae (budding yeast), UniProt P46946 1-345).
T2 sequence: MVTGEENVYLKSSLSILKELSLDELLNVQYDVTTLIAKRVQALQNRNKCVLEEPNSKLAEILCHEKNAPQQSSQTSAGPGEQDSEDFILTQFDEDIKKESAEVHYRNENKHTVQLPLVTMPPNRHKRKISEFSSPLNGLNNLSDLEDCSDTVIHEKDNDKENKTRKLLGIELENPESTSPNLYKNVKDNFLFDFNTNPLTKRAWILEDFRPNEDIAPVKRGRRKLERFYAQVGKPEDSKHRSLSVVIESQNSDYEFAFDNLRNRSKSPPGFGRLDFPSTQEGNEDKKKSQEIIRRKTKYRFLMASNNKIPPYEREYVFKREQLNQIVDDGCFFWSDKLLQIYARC
Briefly: UV photo-crosslinking.

The target of data set [5] is M(H125N)RX (Saccharomyces cerevisiae (budding yeast), UniProt P32829;P12753;P33301 1-692;1-1312;1-854, H125N;Mre11). Put plainly: EMSA.
Chain of M(H125N)RX (P32829 whole entry H125N, chain 1 of 3): as the sequence (P32829 whole entry, chain 2 of 3) above, with H125N counted along it
Chain of M(H125N)RX (P12753 whole entry, stated change not applied, chain 2 of 3): as the sequence (P12753 whole entry, chain 3 of 3) above
Chain of M(H125N)RX (P33301 whole entry, stated change not applied, chain 3 of 3): as the sequence (P33301 whole entry, chain 4 of 3) above
The target in data set [6] is Mre11-Rad50-Xrs2 (MRX);Sae2 (Saccharomyces cerevisiae (budding …, UniProt P32829;P12753;P33301;P46946 1-692;1-1312;1-854;1-345, |)). Put plainly: EMSA. (In general: Mobility shift assays separate free from complexed probe on a gel.)
Chain of Mre11-Rad50-Xrs2 (MRX);Sae2 (Saccharomyces cerevisiae (P32829 whole entry, chain 1 of 3): as the sequence (P32829 whole entry, chain 2 of 3) above
Chain of Mre11-Rad50-Xrs2 (MRX);Sae2 (Saccharomyces cerevisiae (P12753 whole entry, chain 2 of 3): as the sequence (P12753 whole entry, chain 3 of 3) above
Chain of Mre11-Rad50-Xrs2 (MRX);Sae2 (Saccharomyces cerevisiae (P33301 whole entry, chain 3 of 3): as the sequence (P33301 whole entry, chain 4 of 3) above
Data set [7] deals with T2, Sae2. Put plainly: EMSA.
For data set [8], the target named is T3, Exo1 D173A (Saccharomyces cerevisiae (budding yeast), UniProt P39875 1-702, D173A).
T3 sequence: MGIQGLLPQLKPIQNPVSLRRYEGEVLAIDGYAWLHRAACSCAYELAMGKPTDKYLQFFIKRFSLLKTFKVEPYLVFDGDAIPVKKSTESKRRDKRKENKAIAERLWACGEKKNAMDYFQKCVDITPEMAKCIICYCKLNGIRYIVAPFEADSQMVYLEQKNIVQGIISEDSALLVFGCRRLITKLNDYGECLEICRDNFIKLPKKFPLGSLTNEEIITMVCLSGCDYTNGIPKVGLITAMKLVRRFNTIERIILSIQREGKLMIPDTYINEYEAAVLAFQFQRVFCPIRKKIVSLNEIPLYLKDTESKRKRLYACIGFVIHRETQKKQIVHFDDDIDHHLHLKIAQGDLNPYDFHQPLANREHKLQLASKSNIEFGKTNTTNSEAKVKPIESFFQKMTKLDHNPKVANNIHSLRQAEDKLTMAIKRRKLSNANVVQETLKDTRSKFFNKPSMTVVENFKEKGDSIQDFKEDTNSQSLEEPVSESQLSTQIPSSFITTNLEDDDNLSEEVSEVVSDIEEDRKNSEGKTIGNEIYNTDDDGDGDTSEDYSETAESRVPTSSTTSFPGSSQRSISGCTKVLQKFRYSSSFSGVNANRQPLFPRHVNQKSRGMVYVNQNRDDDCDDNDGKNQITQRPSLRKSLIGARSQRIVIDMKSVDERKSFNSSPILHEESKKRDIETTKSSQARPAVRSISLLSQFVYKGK
Briefly: EMSA.

Chain of Exo1 D173A;Mre11-Rad50-Xrs2 (MRX) (Saccharomyces cerevisiae (P32829 whole entry, chain 2 of 3): as the sequence (P32829 whole entry, chain 2 of 3) above
Chain of Exo1 D173A;Mre11-Rad50-Xrs2 (MRX) (Saccharomyces cerevisiae (P12753 whole entry, chain 3 of 3): as the sequence (P12753 whole entry, chain 3 of 3) above
Chain of Exo1 D173A;Mre11-Rad50-Xrs2 (MRX) (Saccharomyces cerevisiae (P33301 whole entry, chain 4 of 3): as the sequence (P33301 whole entry, chain 4 of 3) above

B1: TP2399/TP2400 blunt 100 bp duplex, pull-down (dsDNA)
DNA 1: GCTAAAGCGAAGAACACTGAAAGGTTCAAAACCTCCACTATAGTCCACTCGCAGTCGTACAAGAGGCTTCTCTGGCTGGTGAGAATTACCCAGACGTTCC
DNA 2: GGAACGTCTGGGTAATTCTCACCAGCCAGAGAAGCCTCTTGTACGACTGCGAGTGGACTATAGTGGAGGTTTTGAACCTTTCAGTGTTCTTCGCTTTAGC
In the case of B1, in data set [1], the binding result was “binds”.

B2: TP2722/TP2723 90 bp, 5' azide (dsDNA)
DNA 1: AAGTAAATCATTAATCTAACAATGCGCTCATCGTCATCCTCACATCGGCCTGTCTTACACAGTGCTAAGCTCGGAACAAAAACCCTGCAG
DNA 2: CTGCAGGGTTTTTGTTCCGAGCTTAGCACTGTGTAAGACAGGCCGATGTGAGGATGACGATGAGCGCATTGTTAGATTAATGATTTACTT
modifications: 5 phosphorothioates at 5' end of each strand, azidophenacyl (APB) modified
Regarding B2, the binding result in data set [2] and in data set [3] was “binds” throughout.

B3: TP771/TP828 90 bp, 3' azide (dsDNA)
DNA 1: AAGTAAATCATTAATCTAACAATGCGCTCATCGTCATCCTCACATCGGCCTGTCTTACACAGTGCTAAGCTCGGAACAAAAACCCTGCAG
DNA 2: CTGCAGGGTTTTTGTTCCGAGCTTAGCACTGTGTAAGACAGGCCGATGTGAGGATGACGATGAGCGCATTGTTAGATTAATGATTTACTT
modifications: 5 phosphorothioates at 3' end of each strand, azidophenacyl (APB) modified
B3: the binding result in data set [4] is given as “binds”.

B4: TP74/TP2680 42 bp duplex with 4 nt 3' overhangs (dsDNA)
DNA 1: CTGCAGGGTTTTTGTTCCAGTCTGTAGCACTGTGTAAGACAGGCCA
DNA 2: CTGTCTTACACAGTGCTACAGACTGGAACAAAAACCCTGCAGTACA
For B4, the binding result in data set [5], in data set [6] and in data set [7] was “binds” throughout.

B5: TP74/TP2681 branched substrate (dsDNA)
DNA 1: CTGCAGGGTTTTTGTTCCAGTCTGTAGCACTGTGTAAGACAGGCCA
DNA 2: CTAGCTACTTGACACAGTGCTACAGACTGGAACTGACTTCATGCTA
Take B5: the binding result in data set [8] is recorded as “binds”.
